From US9067981 (Janssen / Centocor, dated 2015) come the findings set out here.

Where a chain is given by its changes, count along the chain named.

For assay [1], the target named is T1, Aβ1-10 peptide (immobilized).
T1 construct: also called Ab1-10
T1 peptide: DAEFRHDSGY
The experiment in a line: BIACORE (SPR), immobilized Aβ1-10, bivalent interaction assumed. In general terms: Surface plasmon resonance follows binding to a sensor surface in real time, without labels.

Assay [2] has as its target T2, Aβ1-7 peptide (amino acids 1-7 of SEQ ID NO:1).
T2 construct: also called Aβ 2-7 (the part visible in the superimposed models)
T2 peptide: DAEFRHD
The experiment in a line: X-ray crystal structure of the Fab:peptide complex.

For assay [3], the target named is T3, Aβ1-40 peptide (amino acids 1-40 of SEQ ID NO:1).
T3 construct: also called Aβ40
The experiment in a line: comparison of unit cell parameters of the Aβ1-7 and Aβ1-40 crystals.

B1: 12A11 murine IgG1 kappa monoclonal antibody (antibody, V domains shown)
VH: QVTLKESGPGILKPSQTLSLTCSFSGFSLSTSGMSVGWIRQPSGKGLEWLAHIWWDDDKYYNPSLKSRLTISKDTSRNQVFLKITSVDTADTATYYCARRTTTADYFAYWGQGTTLTVSS
VL: DVLMTQTPLSLPVSLGDQASISCRSSQSIVHSNGNTYLEWYLQKPGQSPKLLIYKVSNRFSGVPDRFSGSGSGTDFTLKISRVEAEDLGIYYCFQSSHVPLTFGAGTKLELK
B1 returned a Kd in assay [1] of 8.4 nM.

B2: Fab fragment of 12B4 (Fab, V domains shown)
VH: QVTLKESGPGILQPSQTLSLTCSFSGFSLSTNGMGVSWIRQPSGKGLEWLAHIYWDEDKRYNPSLKSRLTISKDTSNNQVFLKITNVDTADTATYYCARRRIIYDVEDYFDYWGQGTTLTVSS
VL: B1 VL with S28N, I90V, S96G
notes: Fab of the murine IgG2a kappa antibody as crystallized; also called 12B4 Fab
For B2, the binding result in assay [2] is “binds”.

B3: 12B4 murine IgG2a kappa monoclonal antibody (antibody, V domains shown)
VH: B2 VH
VL: B1 VL with S28N, I90V, S96G
In assay [1], B3 yielded a Kd of 24.5 nM.

B4: Fab fragment of 12A11 (Fab, V domains shown)
VH: B1 VH
VL: B1 VL
notes: also called 12A11 Fab
For B4, the binding result in assay [3] and in assay [2] was “binds” throughout.

B5: Fab fragment of 3D6 (Fab, V domains shown)
VL: not shown
V domain: EVKLVESGGGLVKPGASLKLSCAASGFTFSNYGMSWVRQNSDKRLEWVASIRSGGGRTYYSDNVKGRFTISRENAKNTLYLQMSSLKSEDTALYYCVRYDHYSGSSDYWGQGTTITVSS
notes: also called 3D6 Fab
Regarding B5, the binding result in assay [2] is recorded as “binds”.
